From US20240325495A1, “FUSION PROTEINS FOR THE TREATMENT OF DISEASE” (Bristol-Myers Squibb Company, priority 2020, published 2024)

Tests used:
[1] = system: Kit225 Interferon Regulatory Factor 1 (IRF1)-driven reporter cell line; assay: Kit225 IRF1-driven reporter cell line assay; format: cell-based
monkeys [2] = assay: Pivotal single-dose IV toxicity and cardiovascular safety study in monkeys; format: in vivo
Text: The single- and repeat-dose toxicity of BMS-986326 were characterized in a series of studies in rats for up to 2 weeks and in monkeys up to 12 weeks using selected dosing frequencies. Pivotal good laboratory practice (GLP) repeat-dose studies in both species employed SC administration of BMS-986326 and consisted of two 2-week studies in rats using differing dose frequencies (once weekly [QW] vs twice weekly [2QW]), a 2-week once weekly dosing study in monkeys, and a 12-week (once every 3 week, Q3W) dosing study in monkeys. In addition, single-dose exploratory studies were initially completed in both rats and monkeys to explore the tolerability of BMS-986326, and a single-dose GLP IV toxicity and cardiovascular safety study was also completed in telemeterized monkeys using IV dosing to support IV administration in the first-in-human (FIH) single-ascending dose (SAD) study (IM034001).
Microscopically, there were dose-dependent multisystemic infiltrates of eosinophils and mononuclear cells in some tissues.

[3] = Nonclinical pharmacokinetics in monkeys; format: in vivo
Procedure: Various in vitro and in vivo studies were conducted to characterize the PK of BMS-986326 in the nonclinical setting.

rats [4] = assay: 2-week toxicity study in rats, twice weekly SC; format: in vivo
Text: (§1) The highest exposures were noted during the first week of each study and diminished considerably during the second week, due to ADA impact. […] Splenic capsular fibroplasia with inflammation was considered adverse at all twice weekly doses due to moderate to marked severity and was also associated with minimal to mild inflammation in the mesentery (adjacent to the stomach and pancreas), which further contributed to the adversity of the finding. […] The primary BMS-986326-related effects were mostly minimal in severity at all once weekly doses (0.25, 0.5, or 1 mg/kg) and included increased eosinophils (1.9× to 6.7×); minimal capsular fibroplasia/fibrosis of spleen without inflammation or involvement of adjacent mesentery; and pharmacologically mediated infiltration of eosinophils into a few tissues, none of which were considered adverse due to low magnitude of change and lack of evidence of any compromise in functional integrity of organs involved.

[5] = target: T1, IL-2Rβγ (as a pre-assembled heterodimer) (Mus musculus, UniProt P16297+P34902); assay: Binding affinity to mouse IL-2Rβγ
T1 sequence (P16297 27-240 limits assumed): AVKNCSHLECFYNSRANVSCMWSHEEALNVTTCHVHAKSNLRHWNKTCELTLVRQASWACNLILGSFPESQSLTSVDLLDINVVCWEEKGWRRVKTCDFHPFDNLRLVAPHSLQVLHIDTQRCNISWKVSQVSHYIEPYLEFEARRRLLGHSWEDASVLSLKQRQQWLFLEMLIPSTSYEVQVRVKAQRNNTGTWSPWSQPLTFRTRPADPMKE
T1 sequence (P34902 23-263 limits assumed): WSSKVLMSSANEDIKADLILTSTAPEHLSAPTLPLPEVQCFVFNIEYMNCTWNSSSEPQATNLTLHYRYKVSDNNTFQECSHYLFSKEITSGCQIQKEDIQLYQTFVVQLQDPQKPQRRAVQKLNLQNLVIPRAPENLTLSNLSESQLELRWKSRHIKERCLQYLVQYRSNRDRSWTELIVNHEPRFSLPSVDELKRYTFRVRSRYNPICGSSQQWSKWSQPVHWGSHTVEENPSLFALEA

rats [6] = assay: Single-dose exploratory SC study in rats; format: in vivo
rats [7] = assay: 2-week toxicity study in rats, once weekly SC; format: in vivo
Text: as §1

monkeys [8] = assay: Single-dose exploratory tolerability PK/PD study, SC, monkeys
self-blocking homodimer = assay: Biochemical and biophysical characterization: homodimer dissociation; format: binding; conditions: in vitro at 37° C.
Chain of self-blocking homodimer (as listed by the source): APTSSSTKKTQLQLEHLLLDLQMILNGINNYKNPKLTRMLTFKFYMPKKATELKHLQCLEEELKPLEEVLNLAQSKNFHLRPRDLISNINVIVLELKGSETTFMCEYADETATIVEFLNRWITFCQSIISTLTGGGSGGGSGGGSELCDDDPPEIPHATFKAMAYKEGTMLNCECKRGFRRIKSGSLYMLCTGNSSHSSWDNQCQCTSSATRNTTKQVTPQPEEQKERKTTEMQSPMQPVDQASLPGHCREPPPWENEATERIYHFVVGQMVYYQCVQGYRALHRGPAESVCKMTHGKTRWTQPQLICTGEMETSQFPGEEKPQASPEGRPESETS

BMS-986326: recombinant fusion protein of human IL2 and extracellular domain of human CD25, (GGGS)3 linker, non-covalent self-blocking homodimer
decrease of in vitro potency compared to recombinant IL-2 [1]: > 100 fold
EC50 ([1]; Kit225 IRF1-driven reporter cell line, read-out: average half-maximal effective concentration (EC50)): 3.4 nM
blood pressure, CLS-like effects, hemodynamic and electrocardiographic parameters (monkeys [2]; monkey, in vivo, iv): no decreases in blood pressure, CLS-like effects, or other effects on hemodynamic or electrocardiographic parameters
increase in eosinophils (monkeys [2]; monkey, in vivo, iv): up to 91.6 ×
mean AUC [0-336 h] across all doses (monkeys [2]; monkey, in vivo, iv): ≤ 757 µg·h/mL
increased heart rate relative to baseline (monkeys [2]; monkey, in vivo, iv, 0.5 mg/kg): 4%
transient increase in mean body temperature (monkeys [2]; monkey, in vivo, iv, 0.5 mg/kg): up to 1.1 °C
clinical tolerability (monkeys [2]; monkeys, single IV 0.05, 0.15 or 0.5 mg/kg): clinically well tolerated at all doses
no-observed-adverse-effect level (NOAEL) (monkeys [2]; monkeys, single IV dose): 0.5 mg/kg
NOAEL AUC[0-336 hours] (monkeys [2]; single-dose monkey toxicology study): ≤ 757 μ·h/ml
total serum clearance (CLTs) [3]: 18.5 mL/day/kg
steady-state volume of distribution (Vss) ([3]; IV): 0.0734 L/kg
absolute bioavailability ([3]; SC dosing): 46%
apparent elimination half-life (T-HALF) ([3]; SC dosing): 79.2 h
time of maximum concentration (Tmax) ([3]; SC dosing): 24 h
doses with adverse capsular fibroplasia and inflammation of the spleen (rats [4]; rat, in vivo): ≥ 0.5 mg/kg
increases in eosinophils versus controls (rats [4]; rat, in vivo, 0.5 mg/kg): 3-22 ×
clinically tolerated doses (rats [4]; rats, 2-week studies, all doses): ≤ 2.5 mg/kg
NOAEL (rats [4]; rats, twice weekly dosing study): a NOAEL was not identified
mean AUC [0-336 h] at tolerated doses (rats [4]; rats, ≤[…]): ≤ 600 µg·h/mL
Kd [5]: > 4000 nM
dose not tolerated (morbidity or death on Day 5) (rats [6]; male rats, single SC dose): ≥ 25 mg/kg/day
mean AUC [0-96 h] (rats [6]; rats, 5 mg/kg): 501 µg·h/mL
dose with no adverse effects observed (rats [6]; rats, single SC dose): 5 mg/kg
mean AUC [0-96 h] at not tolerated doses (rats [6]; rats, ≥25 mg/kg/day): ≥ 2,080 μg·h/mL
mean AUC at NOAEL (rats [7]; 1 mg/kg once weekly): 162 µg·h/mL
NOAEL (rats [7]; once weekly dosing for 2 weeks): 1 mg/kg
expansion and proliferation of Tconv and CD8+ T cells (monkeys [8]; 2 highest doses tested): dose-dependent expansion and proliferation
fold increase of % Treg above pre-dose at peak (monkeys [8]; single SC […]): 4.8 fold
dose not tolerated (monkeys [8]; single SC dose): 2.5 mg/kg
well tolerated doses (monkeys [8]; single SC dose): up to 0.75 mg/kg
dissociation half-life of self-blocking homodimer (self-blocking homodimer): approximately 3 days
